The values below come from the RNAGym collection of RNA variant scans (doi:10.7554/elife.80360).

First the molecules themselves.
B1: CPEB3 Ribozyme (parent)
chain: GGGGGCCACAGCAGAAGCGUUCACGUCGCGGCCCCUGUCAGAUUCUGGUGAAUCUGCGAAUUCUGCUGU

The series covers variants of B1. Put plainly: self-cleavage, relative activity (ratio to wild type); higher = more cleavage; co-transcriptional.
Regarding C29A G47U, the self-cleavage worked out at 0.817.

Regarding C29A G47C, the self-cleavage amounted to 0.716.

For G30C C32A, the self-cleavage is 0.194.

Regarding C29A U53C, the self-cleavage came out at 0.356.

As to C29A U53G, the self-cleavage was found to be 0.454.

With C29A U53A, the self-cleavage is 0.46.

For G30A A59U, the self-cleavage worked out at 0.361.

For the variant G30A U69C, the self-cleavage stood at 1.04.

Consider G30A U69A, for which the self-cleavage came out at 1.

As to C29U, the self-cleavage is 0.557.

As for C29G, the self-cleavage is 0.618.

G30A C63A: the self-cleavage is 0.413.

In the case of C29U U43C, the self-cleavage was 0.301.

Regarding C29A C66G, the self-cleavage turned out to be 0.365.

Regarding C29A C66U, the self-cleavage amounted to 0.664.

For C29U A59C, the self-cleavage was 0.237.

Regarding C29U A59G, the self-cleavage is 0.58.

Consider G30A C45U, for which the self-cleavage was found to be 0.884.

As to G30A C45G, the self-cleavage was 0.73.

Regarding C29G A42U, the self-cleavage is 0.385.

Regarding C29G A42G, the self-cleavage is 0.445.

As to C29U U61A, the self-cleavage was 0.244.

Take C29U U61G: the self-cleavage is 0.218.

With G30C G58U, the self-cleavage is 0.579.

With G30C G58A, the self-cleavage was found to be 0.359.

G30C G58C: the self-cleavage came to 0.494.

As for G30C C39U, the self-cleavage was 0.396.

As to G30C C39A, the self-cleavage came to 0.218.

Regarding C29G G31U, the self-cleavage was determined as 0.131.

C29G G31A: the self-cleavage stood at 0.146.

With G30C C35G, the self-cleavage worked out at 0.15.

Take G30A G68A: the self-cleavage came to 0.988.

Regarding G30C A60U, the self-cleavage is 0.242.

For G30C A60C, the self-cleavage came to 0.285.

With G30C A60G, the self-cleavage is 0.411.

With C29G G41A, the self-cleavage was determined as 0.236.

For the variant C29G U38G, the self-cleavage was determined as 0.207.

Turning to C29G U38C, the self-cleavage was found to be 0.302.

For the variant G30A U38G, the self-cleavage was determined as 0.274.

Turning to G30A U38C, the self-cleavage stood at 0.531.

As for G30A A60C, the self-cleavage was 0.261.

For C29U G48U, the self-cleavage is 0.583.

Consider C29U G48A, for which the self-cleavage is 0.601.

Turning to G30A C32A, the self-cleavage was 0.245.

Regarding G30A C32G, the self-cleavage came to 0.261.

Consider G30A C32U, for which the self-cleavage was determined as 0.714.

Turning to C29U U38G, the self-cleavage was 0.238.

On to C29U U38C, for which the self-cleavage is 0.189.

For G30A C54U, the self-cleavage was determined as 0.876.

Turning to G30A C54A, the self-cleavage was 0.431.

For the variant C29A G41C, the self-cleavage stood at 0.195.

Regarding C29A C63G, the self-cleavage amounted to 0.286.

As to C29G U62G, the self-cleavage was found to be 0.206.

For the variant C29G U62C, the self-cleavage was 0.251.

C29G U62A: the self-cleavage was found to be 0.254.

G30C C66A: the self-cleavage amounted to 0.397.

With G30C C66U, the self-cleavage was found to be 0.666.

Take G30C C66G: the self-cleavage was found to be 0.396.

Consider C29U G58A, for which the self-cleavage stood at 0.372.

C29U G58U: the self-cleavage was determined as 0.641.

On to C29U A40G, for which the self-cleavage was determined as 0.288.

Regarding C29U A40C, the self-cleavage was found to be 0.203.

Consider C29U A40U, for which the self-cleavage amounted to 0.157.

Consider C29A G31A, for which the self-cleavage was 0.296.

As to C29A G31C, the self-cleavage is 0.175.

On to C29A G31U, for which the self-cleavage worked out at 0.221.

As for C29U A42U, the self-cleavage stood at 0.262.

As for C29G A40G, the self-cleavage came to 0.457.

Turning to C29G A40U, the self-cleavage was determined as 0.277.

With C29G A40C, the self-cleavage came to 0.157.

For the variant C29U U46A, the self-cleavage came out at 0.699.

Regarding G30A U46A, the self-cleavage is 0.723.

Turning to G30A U46C, the self-cleavage came out at 0.866.

For the variant G30C G47A, the self-cleavage worked out at 0.617.

G30C G47C: the self-cleavage came out at 0.696.

As for G30C G47U, the self-cleavage is 0.71.

For the variant C29G G47A, the self-cleavage amounted to 0.553.

As to C29G G47U, the self-cleavage worked out at 0.612.

In the case of C29G G47C, the self-cleavage came out at 0.558.

As to G30C C57G, the self-cleavage came out at 0.223.

Consider C29G G37U, for which the self-cleavage turned out to be 0.185.

Turning to G30A U49G, the self-cleavage is 0.674.

For the variant G30A U49C, the self-cleavage worked out at 0.909.

For the variant G30A G56C, the self-cleavage amounted to 0.413.

For G30A G56U, the self-cleavage worked out at 0.693.

Regarding G30A G56A, the self-cleavage was 0.713.

For G30A U44A, the self-cleavage amounted to 0.658.

Consider G30A U44C, for which the self-cleavage was 0.697.

For the variant C29U G30U, the self-cleavage is 0.169.

Consider C29U G30C, for which the self-cleavage came to 0.232.

Take G30A A52U: the self-cleavage was found to be 0.806.

For G30A A52C, the self-cleavage is 0.739.

Consider C29U G50C, for which the self-cleavage is 0.321.

For C29U G50U, the self-cleavage is 0.517.

For C29U G50A, the self-cleavage turned out to be 0.524.

In the case of C29U C35U, the self-cleavage was determined as 0.314.

Take C29U C33G: the self-cleavage was found to be 0.226.

Turning to C29U C33A, the self-cleavage stood at 0.355.

For the variant C29U C45A, the self-cleavage worked out at 0.307.

Regarding C29U C45U, the self-cleavage was found to be 0.505.

Turning to C29U C45G, the self-cleavage is 0.404.

For C29A G68C, the self-cleavage was 0.914.

Regarding C29A G68U, the self-cleavage was 0.903.

As to G30C A52U, the self-cleavage worked out at 0.556.

On to G30C A52G, for which the self-cleavage was 0.724.

Take G30C A52C: the self-cleavage worked out at 0.506.

In the case of G30C U43C, the self-cleavage was found to be 0.587.

C29U A60U: the self-cleavage stood at 0.23.

With C29U A60G, the self-cleavage was determined as 0.345.

In the case of C29A G37U, the self-cleavage was found to be 0.147.

For C29A G37C, the self-cleavage came out at 0.186.

Regarding C29G U36G, the self-cleavage came to 0.236.

C29G U36A: the self-cleavage is 0.157.

In the case of C29A U55C, the self-cleavage was determined as 0.38.

Consider C29A U55A, for which the self-cleavage was 0.273.

As for C29G C45A, the self-cleavage was determined as 0.402.

As for C29G C45G, the self-cleavage was found to be 0.407.

G30C C63U: the self-cleavage came to 0.645.

In the case of G30C C63G, the self-cleavage was 0.329.

As for C29G C57G, the self-cleavage worked out at 0.183.

As to C29G C57A, the self-cleavage is 0.215.

For C29G C57U, the self-cleavage is 0.206.

With C29A U61A, the self-cleavage was 0.543.

C29U U67G: the self-cleavage worked out at 0.359.

As for C29U U67C, the self-cleavage came to 0.308.

In the case of C29U U67A, the self-cleavage turned out to be 0.21.

For C29U G65A, the self-cleavage was 0.19.

In the case of C29U G65C, the self-cleavage worked out at 0.272.

Consider C29U G65U, for which the self-cleavage amounted to 0.167.

On to G30A G48U, for which the self-cleavage is 0.868.

In the case of G30A G48C, the self-cleavage turned out to be 0.901.

C29G G68C: the self-cleavage amounted to 0.715.

Take C29G G68A: the self-cleavage was determined as 0.845.

Consider C29A U38A, for which the self-cleavage is 0.365.

As to C29A U38G, the self-cleavage amounted to 0.218.

C29A U38C: the self-cleavage is 0.385.

As to G30C C54U, the self-cleavage was determined as 0.673.

Consider G30C C54G, for which the self-cleavage is 0.296.

Take C29U A52G: the self-cleavage was 0.529.

Take C29U A52C: the self-cleavage worked out at 0.417.

On to C29U A52U, for which the self-cleavage amounted to 0.396.

As for C29U G56U, the self-cleavage turned out to be 0.198.

For C29U G56A, the self-cleavage worked out at 0.244.

Consider C29U U55C, for which the self-cleavage was found to be 0.199.

Consider C29U U55G, for which the self-cleavage was 0.167.

For C29U U55A, the self-cleavage was 0.173.

For the variant G30C C34A, the self-cleavage was found to be 0.243.

As for G30C C34U, the self-cleavage was found to be 0.6.

As to C29G C66U, the self-cleavage was found to be 0.418.

Turning to C29G C66A, the self-cleavage was 0.312.

C29A G48A: the self-cleavage was 0.777.

On to C29A G48C, for which the self-cleavage was determined as 0.728.

Turning to C29A G48U, the self-cleavage turned out to be 0.755.

On to G30C C33U, for which the self-cleavage amounted to 0.576.

Take C29A G65A: the self-cleavage worked out at 0.371.

For the variant C29A G65C, the self-cleavage worked out at 0.392.

On to C29A G65U, for which the self-cleavage worked out at 0.25.

With G30A C33A, the self-cleavage turned out to be 0.203.

Take G30A C33U: the self-cleavage came out at 0.691.

C29G U46A: the self-cleavage was 0.707.

C29G U46G: the self-cleavage is 0.603.

Consider C29A U69C, for which the self-cleavage worked out at 0.973.

As for C29A U36A, the self-cleavage is 0.215.

Take C29A U36C: the self-cleavage is 0.428.

For G30C G31A, the self-cleavage turned out to be 0.252.

As for G30C G31C, the self-cleavage was determined as 0.136.

For C29U C34U, the self-cleavage was 0.495.
